Measurements reported in patent US20220145343A1 (priority 2019, published 2022).

Experiments:
Assay in all cases: purified protein, by the assay type
[1] = test system: CC(=O)N[C@H]1[C@H]([C@H](O)[C@H](O)CO)O[C@@](OCCCNC(=O)OCc2ccccc2)(C(=O)O)C[C@@H]1O; details: other: apparent, varying acceptor, 2 mM UDP-Gal, pH 6.5, 30° C.
[2] = test system: CC(=O)N[C@H]1[C@H]([C@H](O)[C@H](O)CO)O[C@@](OCCCNC(=O)OCc2ccccc2)(C(=O)O)C[C@@H]1O[C@H]1O[C@H](CO[C@]2(C(=O)O)C[C@H](O)[C@@H](NC(C)=O)[C@H]([C@H](O)[C@H](O)CO)O2)[C@H](O)[C@H](O)[C@H]1O; details: other: apparent, varying acceptor, 2 mM UDP-Gal, pH 6.5, 30° C.
[3] = test system: CC(=O)N[C@H]1[C@H]([C@H](O)[C@H](O)CO)O[C@@](OCCCNC(=O)OCc2ccccc2)(C(=O)O)C[C@@H]1O[C@H]1O[C@H](CO[C@]2(C(=O)O)C[C@H](O[C@H]3O[C@H](CO[C@]4(C(=O)O)C[C@H](O)[C@@H](NC(C)=O)[C@H]([C@H](O)[C@H](O)CO)O4)[C@H](O)[C@H](O)[C@H]3O)[C@@H](NC(C)=O)[C@H]([C@H](O)[C@H](O)CO)O2)[C@H](O)[C@H](O)[C@H]1O; details: other: apparent, varying acceptor, 2 mM UDP-Gal, pH 6.5, 30° C.
[4] = test system: CC(=O)N[C@H]1[C@H]([C@H](O)[C@H](O)CO)O[C@@](OCCCNC(=O)OCc2ccccc2)(C(=O)O)C[C@@H]1O[C@H]1O[C@H](CO)[C@H](O)[C@H](O)[C@H]1O; details: other: apparent, varying acceptor, 10 mM CMP-Neu5Ac, pH 8.0, 30° C.
[5] = test system: CC(=O)N[C@H]1[C@H]([C@H](O)[C@H](O)CO)O[C@@](OC[C@H]2O[C@H](O[C@H]3C[C@](OCCCNC(=O)OCc4ccccc4)(C(=O)O)O[C@@H]([C@H](O)[C@H](O)CO)[C@@H]3NC(C)=O)[C@H](O)[C@@H](O)[C@H]2O)(C(=O)O)C[C@@H]1O[C@H]1O[C@H](CO)[C@H](O)[C@H](O)[C@H]1O; details: other: apparent, varying acceptor, 10 mM CMP-Neu5Ac, pH 8.0, 30° C.
[6] = test system: CC(=O)N[C@H]1[C@H]([C@H](O)[C@H](O)CO)O[C@@](OC[C@H]2O[C@H](O[C@H]3C[C@](OC[C@H]4O[C@H](O[C@H]5C[C@](OCCCNC(=O)OCc6ccccc6)(C(=O)O)O[C@@H]([C@H](O)[C@H](O)CO)[C@@H]5NC(C)=O)[C@H](O)[C@@H](O)[C@H]4O)(C(=O)O)O[C@@H]([C@H](O)[C@H](O)CO)[C@@H]3NC(C)=O)[C@H](O)[C@@H](O)[C@H]2O)(C(=O)O)C[C@@H]1O[C@H]1O[C@H](CO)[C@H](O)[C@H](O)[C@H]1O; details: other: apparent, varying acceptor, 10 mM CMP-Neu5Ac, pH 8.0, 30° C.
[7] = test system: CC(=O)N[C@H]1[C@H]([C@H](O)[C@H](O)CO)O[C@@](OC[C@H]2O[C@H](O[C@H]3C[C@](OC[C@H]4O[C@H](O[C@H]5C[C@](OC[C@H]6O[C@H](O[C@H]7C[C@](OCCCNC(=O)OCc8ccccc8)(C(=O)O)O[C@@H]([C@H](O)[C@H](O)CO)[C@@H]7NC(C)=O)[C@H](O)[C@@H](O)[C@H]6O)(C(=O)O)O[C@@H]([C@H](O)[C@H](O)CO)[C@@H]5NC(C)=O)[C@H](O)[C@@H](O)[C@H]4O)(C(=O)O)O[C@@H]([C@H](O)[C@H](O)CO)[C@@H]3NC(C)=O)[C@H](O)[C@@H](O)[C@H]2O)(C(=O)O)C[C@@H]1O[C@H]1O[C@H](CO)[C@H](O)[C@H](O)[C@H]1O; details: other: apparent, varying acceptor, 10 mM CMP-Neu5Ac, pH 8.0, 30° C.
[8] = test system: CC(=O)N[C@H]1[C@H]([C@H](O)[C@H](O)CO)O[C@@](OC[C@H]2O[C@H](O[C@H]3C[C@](OC[C@H]4O[C@H](O[C@H]5C[C@](OC[C@H]6O[C@H](O[C@H]7C[C@](OC[C@H]8O[C@H](O[C@H]9C[C@](OCCCNC(=O)OCc%10ccccc%10)(C(=O)O)O[C@@H]([C@H](O)[C@H](O)CO)[C@@H]9NC(C)=O)[C@H](O)[C@@H](O)[C@H]8O)(C(=O)O)O[C@@H]([C@H](O)[C@H](O)CO)[C@@H]7NC(C)=O)[C@H](O)[C@@H](O)[C@H]6O)(C(=O)O)O[C@@H]([C@H](O)[C@H](O)CO)[C@@H]5NC(C)=O)[C@H](O)[C@@H](O)[C@H]4O)(C(=O)O)O[C@@H]([C@H](O)[C@H](O)CO)[C@@H]3NC(C)=O)[C@H](O)[C@@H](O)[C@H]2O)(C(=O)O)C[C@@H]1O[C@H]1O[C@H](CO)[C@H](O)[C@H](O)[C@H]1O; details: other: apparent, varying acceptor, 10 mM CMP-Neu5Ac, pH 8.0, 30° C.

Substance	kcat/Km [1]	Km [2]	kcat [2]	kcat/Km [2]	Km [3]	kcat [3]	kcat/Km [3]	Km [4]	kcat [4]	kcat/Km [4]	Km [5]	kcat [5]	kcat/Km [5]	kcat [6]	kcat [7]	kcat [8]
NmSiaDW galactosyltransferase activity (Neisseria meningitidis)	47 M⁻¹ s⁻¹	890 ± 100 µM	8.8 ± 0.4 s⁻¹	10000 M⁻¹ s⁻¹	100 ± 20 µM	5.3 ± 0.2 s⁻¹	51000 M⁻¹ s⁻¹									
NmSiaDW sialyltransferase activity (Neisseria meningitidis)								180 ± 40 µM	9.76 ± 0.55 s⁻¹	55000 M⁻¹ s⁻¹	240 ± 40 µM	23.1 ± 1.1 s⁻¹	97000 M⁻¹ s⁻¹	7.03 to 11.9 s⁻¹	7.03 to 11.9 s⁻¹	7.03 to 11.9 s⁻¹
